This note sets out measurements from patent publication US20130123349A1.

The target in experiment [1] is soluble collagen type I (pepsin-digested, non-fibrillar, triple helical; BD Biosciences) (human) (UniProt P02452). Description: SPR, saliva injected over immobilized collagen type I for 120 sec at 20 µl/min. Background: Surface plasmon resonance follows binding to a sensor surface in real time, without labels.
Experiment [2] deals with soluble collagen type III (pepsin-digested, non-fibrillar; BD Biosciences) (human) (UniProt P02461). In words: SPR, saliva injected over immobilized collagen type III for 120 sec at 20 µl/min.
For experiment [3], the target named is collagen-related peptide (GPO)10, GCO-(GPO)10-GCOG-NH2, cross-linked. In words: SPR, Aegyptin over immobilized cross-linked (GPO)10, two-state model (text value; Table 4 prints 5.101 µM).
The target is the same in experiment [4]. In words: SPR, Aegyptin over immobilized cross-linked (GPO)10 peptide, two-state model; Kd1.
The target is the same in experiment [5]. In words: SPR, Aegyptin over immobilized cross-linked (GPO)10 peptide, two-state model; Ka1.
For experiment [6] the target is unchanged. In words: SPR, Aegyptin over immobilized cross-linked (GPO)10 peptide, two-state model.

Chain of soluble collagen type I (pepsin-digested, non-fibrillar, triple helical; BD Biosciences) (human) (P02452 179-1192 limits assumed, chain 1 of 2): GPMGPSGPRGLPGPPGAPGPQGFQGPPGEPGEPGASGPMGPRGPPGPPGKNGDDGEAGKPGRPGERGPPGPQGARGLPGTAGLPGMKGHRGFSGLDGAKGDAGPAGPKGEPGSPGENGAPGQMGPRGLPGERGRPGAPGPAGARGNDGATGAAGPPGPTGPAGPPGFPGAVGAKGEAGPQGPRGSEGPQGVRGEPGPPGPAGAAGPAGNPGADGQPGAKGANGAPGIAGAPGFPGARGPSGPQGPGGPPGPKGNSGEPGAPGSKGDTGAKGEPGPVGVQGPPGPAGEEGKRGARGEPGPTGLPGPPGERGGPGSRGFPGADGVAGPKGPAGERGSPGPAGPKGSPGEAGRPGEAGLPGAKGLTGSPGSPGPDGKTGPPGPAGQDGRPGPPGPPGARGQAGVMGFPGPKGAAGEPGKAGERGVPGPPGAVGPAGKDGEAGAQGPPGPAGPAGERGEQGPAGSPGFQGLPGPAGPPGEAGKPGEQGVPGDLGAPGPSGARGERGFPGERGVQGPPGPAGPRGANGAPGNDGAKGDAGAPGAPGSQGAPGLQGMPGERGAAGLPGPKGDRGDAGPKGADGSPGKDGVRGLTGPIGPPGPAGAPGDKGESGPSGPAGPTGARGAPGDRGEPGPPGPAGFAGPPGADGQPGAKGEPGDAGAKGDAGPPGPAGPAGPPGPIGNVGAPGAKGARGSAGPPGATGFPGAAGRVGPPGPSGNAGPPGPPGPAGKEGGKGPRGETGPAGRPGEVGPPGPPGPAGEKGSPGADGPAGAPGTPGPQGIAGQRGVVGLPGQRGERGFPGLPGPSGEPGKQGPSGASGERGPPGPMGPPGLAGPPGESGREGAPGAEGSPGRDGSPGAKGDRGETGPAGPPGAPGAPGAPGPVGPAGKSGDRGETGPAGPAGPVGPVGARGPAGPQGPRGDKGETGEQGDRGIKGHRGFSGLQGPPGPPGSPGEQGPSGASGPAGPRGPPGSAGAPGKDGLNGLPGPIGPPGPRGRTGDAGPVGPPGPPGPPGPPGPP
Chain of soluble collagen type I (pepsin-digested, non-fibrillar, triple helical; BD Biosciences) (human) (P08123 91-1104 limits assumed, chain 2 of 2, further chain): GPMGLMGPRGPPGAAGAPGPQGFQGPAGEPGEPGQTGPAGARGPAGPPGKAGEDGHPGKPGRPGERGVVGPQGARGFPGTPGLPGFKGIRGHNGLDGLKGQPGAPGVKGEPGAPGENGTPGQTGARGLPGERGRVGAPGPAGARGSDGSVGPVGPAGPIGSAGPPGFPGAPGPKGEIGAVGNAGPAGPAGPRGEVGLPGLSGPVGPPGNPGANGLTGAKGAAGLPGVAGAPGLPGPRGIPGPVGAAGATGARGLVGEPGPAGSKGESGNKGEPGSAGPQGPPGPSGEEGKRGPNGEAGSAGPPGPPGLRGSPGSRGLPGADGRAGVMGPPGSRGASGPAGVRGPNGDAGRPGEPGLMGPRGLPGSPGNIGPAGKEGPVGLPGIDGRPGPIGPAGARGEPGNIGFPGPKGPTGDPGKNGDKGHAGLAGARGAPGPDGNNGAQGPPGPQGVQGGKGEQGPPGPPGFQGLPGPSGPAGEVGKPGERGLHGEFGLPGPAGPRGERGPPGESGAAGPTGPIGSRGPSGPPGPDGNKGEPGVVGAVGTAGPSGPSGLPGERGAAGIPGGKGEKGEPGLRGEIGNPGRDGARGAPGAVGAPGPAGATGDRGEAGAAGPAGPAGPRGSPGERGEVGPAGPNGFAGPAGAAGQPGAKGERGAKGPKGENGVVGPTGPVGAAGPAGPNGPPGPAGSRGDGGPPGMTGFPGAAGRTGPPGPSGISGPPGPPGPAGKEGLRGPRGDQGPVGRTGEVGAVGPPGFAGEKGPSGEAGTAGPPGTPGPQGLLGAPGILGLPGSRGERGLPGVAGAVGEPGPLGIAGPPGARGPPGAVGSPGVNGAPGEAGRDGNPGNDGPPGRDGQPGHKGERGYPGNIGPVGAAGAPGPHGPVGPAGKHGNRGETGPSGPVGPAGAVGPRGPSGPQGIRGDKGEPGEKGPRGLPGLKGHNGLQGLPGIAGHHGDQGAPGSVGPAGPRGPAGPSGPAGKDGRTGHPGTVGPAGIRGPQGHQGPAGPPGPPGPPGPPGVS
Chain of soluble collagen type III (pepsin-digested, non-fibrillar; BD Biosciences) (human) (P02461 168-1196): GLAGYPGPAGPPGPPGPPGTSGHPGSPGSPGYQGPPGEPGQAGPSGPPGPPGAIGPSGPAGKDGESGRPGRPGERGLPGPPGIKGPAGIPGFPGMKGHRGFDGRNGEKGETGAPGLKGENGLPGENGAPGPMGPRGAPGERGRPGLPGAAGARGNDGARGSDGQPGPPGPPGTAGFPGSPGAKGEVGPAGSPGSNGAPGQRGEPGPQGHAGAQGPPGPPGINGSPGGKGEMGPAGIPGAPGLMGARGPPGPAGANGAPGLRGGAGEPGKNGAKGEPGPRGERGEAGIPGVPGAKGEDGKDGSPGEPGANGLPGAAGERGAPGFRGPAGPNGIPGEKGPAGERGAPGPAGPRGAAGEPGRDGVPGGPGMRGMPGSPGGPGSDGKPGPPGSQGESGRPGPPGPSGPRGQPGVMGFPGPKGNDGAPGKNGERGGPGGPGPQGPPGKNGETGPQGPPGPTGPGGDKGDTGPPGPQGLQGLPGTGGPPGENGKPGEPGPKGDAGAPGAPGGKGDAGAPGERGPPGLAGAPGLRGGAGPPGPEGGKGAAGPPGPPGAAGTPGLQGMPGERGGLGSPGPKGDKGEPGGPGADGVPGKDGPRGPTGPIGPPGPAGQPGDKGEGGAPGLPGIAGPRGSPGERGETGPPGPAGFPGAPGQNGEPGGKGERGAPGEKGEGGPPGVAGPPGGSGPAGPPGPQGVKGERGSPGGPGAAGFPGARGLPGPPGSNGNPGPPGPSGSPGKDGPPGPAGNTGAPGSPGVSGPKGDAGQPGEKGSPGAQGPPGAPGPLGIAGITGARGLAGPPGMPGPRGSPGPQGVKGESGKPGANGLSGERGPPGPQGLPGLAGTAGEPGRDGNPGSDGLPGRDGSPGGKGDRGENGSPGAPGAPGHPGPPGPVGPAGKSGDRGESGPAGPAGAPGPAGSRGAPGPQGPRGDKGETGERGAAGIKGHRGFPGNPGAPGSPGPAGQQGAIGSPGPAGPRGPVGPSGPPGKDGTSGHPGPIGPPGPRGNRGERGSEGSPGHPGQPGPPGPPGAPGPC

For Ae. aegypti saliva (0.07 µg/ml), the Response (RU) in experiment [1] amounted to 556 RU; in experiment [2] it was 348 RU.

As to “recombinant Aegyptin (from UniProt O01949 20-273)”, the Kd (usually the equilibrium constant for the complex coming apart) in experiment [3] is 5.01 µM. Further, the koff – broadly, the first-order rate constant of dissociation – in experiment [4] came out at 1.19 s⁻¹. The kon (in general, the rate constant with which the complex forms) in experiment [5] turned out to be 206000 M⁻¹ s⁻¹. In experiment [6], this substance showed a Kd of 5.1 µM, a Kd2 (two-state model) of 0.0289 s⁻¹ and a second Ka of the two-state model of 0.00402 M⁻¹ s⁻¹.
